Each block holds one substance with its values, some of them ahead of it.
What was measured:
HER2 [1] = target: HER2 (UniProt P04626); experiment: SPR; storage -80 (fresh protein); SD 1.E-10; control row printed a second time
HER2 [2] = target: HER2 (UniProt P04626); experiment: SPR; storage 7 d RT; SD 1.E-10
HER2 [3] = target: HER2 (UniProt P04626); experiment: SPR; storage 7 d RT; SD 1.E-10; control row printed a second time
HER2 [4] = target: HER2 (UniProt P04626); experiment: SPR; storage -80 (fresh protein); SD 1.E-10
HER2 [5] = target: HER2 (UniProt P04626); experiment: SPR; average of measurements with different directionality
Tissue factor (TF) [6] = target: Tissue factor (TF) (UniProt P13726); experiment: SPR; storage 7 d RT; SD 2.E-11; control row printed a second time
Tissue factor (TF) [7] = target: Tissue factor (TF) (UniProt P13726); experiment: SPR; storage 7 d RT; SD 2.E-11
Tissue factor (TF) [8] = target: Tissue factor (TF) (UniProt P13726); experiment: SPR; Fab captured on anti-hIgG chip, TF flowed over at 300 nM
Tissue factor (TF) [9] = target: Tissue factor (TF) (UniProt P13726); experiment: SPR; average of measurements with different directionality
[10] = target: CD3 on HBP-ALL (CD3+) cells (UniProt P07766); experiment: live cell ELISA on HBP-ALL (CD3+) cells; OD450 grade at 1/60 dilution
[11] = target: CD19 on RAJI (CD19+) cells (UniProt P15391); experiment: live cell ELISA on RAJI (CD19+) cells; legend: OD450 below 0.100 at 1/60 dilution, but higher dilutions positive (higher than neg control)

- Kd (HER2 [1]): 0.6 nM
- Kd (HER2 [2]): 0.8 nM
- Kd (HER2 [3]): 0.8 nM
- Kd (HER2 [4]): 0.6 nM
- Kd (HER2 [5]): 0.837 nM
Substance: Fab 4D5 (control), variant 695

- Kd (Tissue factor (TF) [6]): 0.08 nM
- Kd (Tissue factor (TF) [7]): 0.08 nM
- Kd (Tissue factor (TF) [8]): 0.0152 nM
- Kd (Tissue factor (TF) [9]): 0.0515 nM
Substance: Fab D3H44 (control), variant 696

- Kd (HER2 [5]): 0.527 nM
Substance: Variant 506, control antibody that binds HER2, based on the sequence of Herceptin

- OD450 at 1/60 dilution [10]: > 2 od
- OD450 at 1/60 dilution [11]: < 0.1 od
Substance: teplizumab-hOKT3-CD3 FSA, variant 2177 (antibody)

From US20140072581A1
